Changes are numbered by the printed parent chain. In names and notes the source's numbering stands.

Test [1] deals with T1, MBP-Aβ40 fusion protein.
T1 construct: the entry may be a nucleic acid; Biotin-labelled in the capture ELISA, unlabeled in the direct ELISA and SPR; also called MBP-Abeta40
Kind of test: SPR (Biacore X), MBP-Aβ40 amine-coupled (1316 RU), mutein as analyte. The protocol: (§1) FIG. 20 depicts the kinetic real time analysis of Lcn2 muteins H1GA (A) and H1GV (B) measured on a Biacore X instrument at a flow rate of 20 μl/min. The MBP-Aβ40 fusion protein was coupled via amine chemistry to a CMD 2001 chip (ΔRU=1316) and each of the purified Lcn2 muteins was applied in a series at varying concentrations. The measured signal is shown as a grey line while the curve fit is depicted as a black line in each case.
(§2) Real time analysis of the interaction between Lcn2 muteins H1GA or H1GV and MBP-Aβ40 (SEQ ID NO: 33) was performed on a Biacore X system using PBS/T (4 mM KH₂PO₄, 16 mM Na₂HPO₄, 115 mM NaCl, pH 7.4 containing 0.005% (v/v) Tween 20) as running buffer. A 15 μg/mL solution of MBP-Aβ40 from Example 2 in 10 mM Na-acetate, pH 4.5 was immobilized onto a CMD 200I chip (Xantec, Düsseldorf, Germany) using standard amine coupling chemistry, resulting in a ligand density of 1316 resonance units (RU). The purified Lcn2 muteins H1GA and H1GV from Example 20 were applied in concentrations ranging from 4 nM to 128 nM at a flow rate of 20 μL/min. The data were double-referenced by subtraction of the corresponding signals measured for the control channel, which had been activated and blocked with ethanolamine, as well as subtraction of the measured signals for an average of buffer injections.
(SPR reads the build-up and loss of mass on a sensor chip optically.)

Test [2] addresses T2, biotinylated Aβ40 peptide (human, C-terminal biotin group attached via a lysine spacer).
T2 construct: Synthetic peptide (Peptide Speciality Laboratory) with a C-terminal biotin on a lysine spacer; used in the capture ELISAs
Kind of test: capture ELISA: mutein captured via Strep-tag II, biotinylated Aβ40 titrated. The protocol:
(§3) FIG. 19 depicts the binding activity of the Lcn2 muteins H1GA, H1GV, and H1-G1 in capture ELISAs with the biotinylated Aβ targets Aβ40 (A) and Trx-Aβ28 (B). StrepMAB-Immo was immobilized at 10 μg/ml on microtitre plates and employed for capturing of 1 μM Lcn2 muteins via the Strep-tag H. Binding of the biotinylated targets, applied in a dilution series, was then detected by incubation with ExtrAvidin/AP and a subsequent chromogenic reaction with pNPP. […] The data were fitted to a monovalent binding model.
A general note: An ELISA detects its analyte on a solid surface through an enzyme-linked reagent.

For test [3], the target named is T3, Trx-Aβ28 fusion protein (Escherichia coli (strain K12), UniProt P0AA25 1-76 = thioredoxin, Biotin-labelled through an NHS ester (2:1) in the capture and competitive ELISAs; unlabeled in the direct ELISA and as competitor.).
T3 construct: the entry may be a nucleic acid; also called TrxAbeta28H6
Kind of test: capture ELISA: mutein captured via Strep-tag II, biotinylated Trx-Aβ28 titrated. The protocol:
as §3

Test [4] addresses T4, ovalbumin (UniProt P01012 2-386).
T4 sequence (looked up): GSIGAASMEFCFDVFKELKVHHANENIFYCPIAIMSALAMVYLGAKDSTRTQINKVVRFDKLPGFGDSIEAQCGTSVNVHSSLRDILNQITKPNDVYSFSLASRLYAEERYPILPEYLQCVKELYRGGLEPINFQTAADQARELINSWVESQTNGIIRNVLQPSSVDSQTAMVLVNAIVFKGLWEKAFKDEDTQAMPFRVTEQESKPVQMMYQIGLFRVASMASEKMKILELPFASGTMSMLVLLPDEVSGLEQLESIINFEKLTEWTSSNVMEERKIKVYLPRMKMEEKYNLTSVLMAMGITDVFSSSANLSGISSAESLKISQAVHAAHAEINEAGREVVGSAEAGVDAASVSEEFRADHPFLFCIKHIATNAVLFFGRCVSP
Kind of test: capture ELISA.

In test [5] the target is T1, MBP-Aβ40 fusion protein. Kind of test: SPR (Biacore X, FIG. 20), MBP-Aβ40 immobilised, H1GV injected; the table marks the row '* dissociation time not sufficiently long'. The procedure:
as §1, §2

The target of test [6] is T1, MBP-Aβ40 fusion protein. As to the kind of experiment: SPR (Biacore X, FIG. 20), MBP-Aβ40 immobilised, H1GA injected; the table marks the row '* dissociation time not sufficiently long'. The procedure: as §1, §2
Test [7] concerns the target T5, Aβ40 peptide, non-labeled (human).
T5 construct: Non-labeled synthetic peptide (W. M. Keck Laboratory); also called Abeta40; amyloid beta peptide
As to the kind of experiment: SPR (Biacore T100), Aβ40 amine-coupled on CM5 (325 RU), dissociation 7200 s. The procedure: (§4) FIG. 21 depicts the kinetic real time analysis of the Lcn2 mutein H1GA measured on a Biacore T100 instrument with immobilized Aβ40 using an extended dissociation time for a trace measured at high concentration. The target peptide Aβ40 was coupled via amine chemistry onto the Biacore CM5 chip (ΔRU=325), and the purified Lcn2 mutein H1GA was applied at a flow rate of 30 μl/min. For exact determination of the low koff rate, dissociation was performed for 7200 s at the highest concentration tested. kon rates were determined using the dilution series of the Lcn2 mutein H1GA with both association and dissociation times of 300 s.
(§5) Real time analysis of the interaction between the Lcn2 mutein H1GA and Aβ40 (SEQ ID NO: 29) was performed on a Biacore T100 system (Biacore, Uppsala, Sweden) using PBS/P (4 mM KH₂PO₄, 16 mM Na₂HPO₄, 115 mM NaCl, pH 7.4 containing 0.005% (v/v) Surfactant P20) as running buffer. […] For exact determination of the low koff rate the highest concentration was analysed using a dissociation time of 7200 s. The data were double-referenced as in Example 21. kₒₙ and koff for the binding reaction were determined from the entire data set using Biacore T100 Evaluation Software V2.0.3 for data processing and kinetic fitting. […]

Test [8] addresses T5, Aβ40 peptide, non-labeled. Kind of test: SPR (Biacore T100), Aβ40 amine-coupled on CM5 (325 RU), mutein as analyte. The protocol: as §4, §5
Test [9] concerns the target T6, recombinant fibronectin single domain ED-B (human).
T6 construct: the entry may be a nucleic acid; also called extra domain-B; extra-domain B
Kind of test: SPR (BIAcore X), ED-B amine-coupled (about 180 RU), mutein as analyte. The procedure:
(§6) FIG. 27 depicts the kinetic real time analysis of Lcn2 variants N7A (A), N7E (B), N9B (C) and N10D (D) measured on a Biacore X instrument. The single fibronectin domain ED-B was coupled via amine chemistry to a CMD 200 m sensor chip (ΔRU=180) and the purified Lcn2 variants were applied at varying concentrations. The measured signals are shown as traces together with the curve fits.
(§7) Real time interaction analysis of Lcn2 muteins was performed on a BIAcore X instrument using HBS/ET (20 mM Hepes, pH 7.5, 150 mM NaCl, 1 mM EDTA containing 0.005% (v/v) Tween 20) as running buffer. 100 μg/ml solution of recombinant ED-B in 10 mM Na-acetate, pH 4.0 was immobilized on a CMD 200 m Sensorchip using standard amine coupling chemistry, resulting in a ligand density of about 180 resonance units (RU). The purified Lcn2 mutein was applied at a flow rate of 25 μl/min at concentrations of 2.5 up to 160 nM. The sensorgrams were corrected by subtraction of the corresponding signals measured for the control channel, which had been activated and blocked with ethanolamine. […] In the case of N10D the heterogeneous analyte competing reaction model was used for data fitting, resulting in two sets of kinetic constants.

In test [10] the target is T7, BSA (bovine, UniProt P02769 25-607).
T7 construct: also called bovine serum albumin
As to the kind of experiment: ELISA on coated protein.

In test [11] the target is T8, recombinant human fibronectin fragment FN789 (human, UniProt P02751 1173-1539).
T8 construct: the entry may be a nucleic acid
As to the kind of experiment: ELISA on coated protein.

In test [12] the target is T9, recombinant human fibronectin fragment FN7B8 (human, UniProt P02751 1173-1448).
T9 construct: no separate number is printed for the protein, so the entry may be a nucleic acid
As to the kind of experiment: ELISA: FN7B8 coated, mutein titrated, detected via Strep-tag II.

Test [13] has as its target T6, recombinant fibronectin single domain …. As to the kind of experiment: SPR (BIAcore X), ED-B immobilised by amine coupling, Lcn2 mutein injected at 0 to 80 nM, 1:1 model. The procedure: as §6
as §7, with “The purified Lcn2 mutein was applied at a flow rate of 25 μl/min at concentrations of 2.5 up to 160 nM.” left out

Test [14] has as its target T9, recombinant human fibronectin fragment …. As to the kind of experiment: SPR (BIAcore X), FN7B8 amine-coupled (about 500 RU), mutein as analyte. An excerpt:
FIG. 13 depicts the kinetic real time analysis of Lcn2 mutein N9B measured on a Biacore instrument. FN7B8 was coupled via amine chemistry to a CMD 200 m sensor chip (ΔRU=500) and the purified Lcn2 mutein was applied at varying concentrations. The measured signal is shown as a grey line whereas the curve fit is depicted as a black line in each case.
FIG. 14 depicts the kinetic real time analysis of Lcn2 mutein N7E measured on a Biacore instrument. FN7B8 was coupled via amine chemistry to a CMD 200 m sensor chip (ΔRU=500) and the purified Lcn2 mutein was applied at varying concentrations. The measured signal is shown as a grey line whereas the curve fit is depicted as a black line in each case.
Real time analysis of Lcn2 muteins was performed on a BIAcore X system (BIAcore, Uppsala, Sweden) using HBS/ET (20 mM Hepes, pH 7.5, 150 mM NaCl, 1 mM EDTA containing 0.005% (v/v) Tween 20) as running buffer. 200 μg/ml solution of recombinant FN7B8 in 10 mM Na-acetate, pH 4.0 was immobilized on a CMD 200 m Sensorchip (XanTec bioanalytics, Duesseldorf, Germany) using standard amine coupling chemistry (Biacore, Uppsala, Sweden), resulting in a ligand density of about 500 resonance units (RU). The purified Lcn2 mutein was applied at a flow rate of 25 μl/min at concentrations of 2.5 up to 160 nM. The sensorgrams were corrected by subtraction of the corresponding signals measured for the control channel, which had been activated and blocked with ethanolamine.

T9 sequence (P02751 other isoform, or with tags, fused parts or gaps limits assumed): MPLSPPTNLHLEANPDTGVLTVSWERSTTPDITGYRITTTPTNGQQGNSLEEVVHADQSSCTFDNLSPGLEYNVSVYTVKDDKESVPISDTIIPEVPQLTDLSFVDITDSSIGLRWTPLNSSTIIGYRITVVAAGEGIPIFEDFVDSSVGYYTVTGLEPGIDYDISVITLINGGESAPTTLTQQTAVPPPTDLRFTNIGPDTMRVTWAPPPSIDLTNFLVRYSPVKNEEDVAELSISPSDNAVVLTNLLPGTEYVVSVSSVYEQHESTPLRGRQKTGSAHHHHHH
T5 sequence (peptide, as listed by the source): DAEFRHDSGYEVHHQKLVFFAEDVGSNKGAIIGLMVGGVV
T6 sequence (chain, as listed by the source limits assumed): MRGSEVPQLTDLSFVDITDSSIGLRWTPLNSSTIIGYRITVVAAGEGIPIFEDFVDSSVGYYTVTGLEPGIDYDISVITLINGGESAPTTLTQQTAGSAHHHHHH
T2 sequence (peptide, as listed by the source): as the sequence (peptide, as listed by the source) above
T7 sequence (P02769 25-607 limits assumed): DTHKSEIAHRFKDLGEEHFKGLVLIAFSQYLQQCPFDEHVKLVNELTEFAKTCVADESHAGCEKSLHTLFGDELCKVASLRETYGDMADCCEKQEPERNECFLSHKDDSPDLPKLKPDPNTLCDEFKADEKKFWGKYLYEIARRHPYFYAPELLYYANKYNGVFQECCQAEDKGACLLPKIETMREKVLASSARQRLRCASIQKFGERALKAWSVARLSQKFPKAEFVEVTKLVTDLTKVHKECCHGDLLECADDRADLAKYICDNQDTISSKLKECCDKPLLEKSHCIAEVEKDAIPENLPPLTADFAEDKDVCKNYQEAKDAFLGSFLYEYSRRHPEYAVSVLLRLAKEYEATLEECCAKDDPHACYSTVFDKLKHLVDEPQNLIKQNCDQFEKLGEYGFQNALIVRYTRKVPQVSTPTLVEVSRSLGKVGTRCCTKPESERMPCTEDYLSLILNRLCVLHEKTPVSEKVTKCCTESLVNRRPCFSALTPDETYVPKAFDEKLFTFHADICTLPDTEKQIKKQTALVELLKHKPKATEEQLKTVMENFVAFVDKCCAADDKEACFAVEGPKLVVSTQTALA
T8 sequence (P02751 other isoform, or with tags, fused parts or gaps limits assumed): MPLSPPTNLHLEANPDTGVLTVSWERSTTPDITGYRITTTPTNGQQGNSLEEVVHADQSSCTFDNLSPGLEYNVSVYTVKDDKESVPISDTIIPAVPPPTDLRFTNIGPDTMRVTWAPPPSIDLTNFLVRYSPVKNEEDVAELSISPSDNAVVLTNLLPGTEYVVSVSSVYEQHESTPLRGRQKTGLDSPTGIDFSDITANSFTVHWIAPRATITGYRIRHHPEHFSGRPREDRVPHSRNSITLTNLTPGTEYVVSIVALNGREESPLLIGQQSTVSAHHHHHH

B1: Lcn2 mutein H1GV (designed binder)
chain: QDSTSDLIPAPPLSKVPLQQNFQDNQFHGKWYVVGVAGNVLLREDKDPLKMYATIYELKEDKSYNVTSVGFDDKKCLYKIRTFVPGSQPGEFTLGRIKSEPGGTSWLVRVVSTNYNQHAMVFFKEVAQNRETFNITLYGRTKELTSELKENFIRFSKSLGLPENHIVFPVPIDQCIDG
notes: H1-G1 with Cys36 replaced by Val
On to B1, for which the dissociation constant (Kd) (commonly the constant that tells how readily two partners part at equilibrium) in test [1] turned out to be 1.06 nM; in test [2], 4.9 nM; in test [3], 4.2 nM; in [5] it was 1.1 nM. The off-rate (koff) (usually the rate constant with which the complex falls apart) in test [1] came out at 7.26e-05 s⁻¹. Moreover, the on-rate (kon) (as a rule, a measure of how fast the partners come together) in test [1] amounted to 68400 M⁻¹ s⁻¹. In [4], the binding result is “no binding”.

B2: Lcn2 mutein H1GA (designed binder)
chain: B1 chain with V36A
notes: H1-G1 with Cys36 replaced by Ala
As to B2, the Kd came out at 0.48 nM in [6]; 0.476 nM in test [1]; 0.095 nM in test [8]; 4.2 nM in test [2]; 3.8 nM in test [3]. For the same molecule, the koff in test [1] came out at 2.75e-05 s⁻¹; in test [7], 1.18e-05 s⁻¹. The association rate constant (kon) in [1] was determined as 57700 M⁻¹ s⁻¹; in [8], 125000 M⁻¹ s⁻¹. The binding result in test [4] is reported as “no binding”.

B3: Lcn2 mutein N9B (designed binder)
chain: QDSTSDLIPAPPLSKVPLQQNFQDNQFHGKWYVVGRAGNMRLREDKDPAKMVATIYELKEDKSYNVTKVMFQRKKCKYMINTFVPGSQPGEFTLGAIKSPPGPTSTLVRVVSTNYNQHAMVFFKHVFQNREYFHITLYGRTKELTSELKENFIRFSKSLGLPENHIVFPVPIDQCIDG
With B3, the Kd in test [9] came out at 5.26 nM; in test [12], 40.1 nM; in test [13], 5.3 nM; in test [14], 36 nM. The figures for the off-rate (koff) in [9] and in test [14] were 0.00762 s⁻¹ and 0.075 s⁻¹, respectively. The kon in test [9] is 1.45e+06 M⁻¹ s⁻¹; in [14], 2.1e+06 M⁻¹ s⁻¹. The binding result in test [10] and in [11] was “no binding” throughout.

Values taken from patent publication US20130079286A1 (Pieris, published 2013).
